Measured values as given in patent US20260193293A1, “PEPTIDES CAPABLE OF INHIBITING PROTEIN-PROTEIN INTERACTIONS AT GABAB1A SUBUNIT AND USES THEREOF” (UNIVERSITY OF COPENHAGEN, priority 2022, published 2026).
Where two headings read alike, the source gives them in different places. Starred links: 1 amine or outer side, 2 acyl side, 3 side chain; linkers in the order of their positions; H or OH if unused. Non-standard residues stand in square brackets, D forms with d. Tyr(Bzl) = Obtyr, O-benzyl-L-tyrosine, O=C([C@H](Cc1ccc(OCc2ccccc2)cc1)N[*:1])[*:2]; Tyr(Et) = Oetyr, O-ethyl-L-tyrosine, CCOc1ccc(C[C@H](N[*:1])C(=O)[*:2])cc1; Tyr(Me) = Omtyr, O-methyl-L-tyrosine, COc1ccc(C[C@H](N[*:1])C(=O)[*:2])cc1; Obtyr = O-benzyl-L-tyrosine, O=C([C@H](Cc1ccc(OCc2ccccc2)cc1)N[*:1])[*:2]; Oetyr = O-ethyl-L-tyrosine, CCOc1ccc(C[C@H](N[*:1])C(=O)[*:2])cc1; Phe(4-NH2) = Nc1ccc(C[C@H](N)C(=O)O)cc1; 1Nal = N[C@@H](Cc1cccc2ccccc12)C(=O)O; 2Nal = N[C@@H](Cc1ccc2ccccc2c1)C(=O)O; Sar = CNCC(=O)O

Key:
[1] = target: Sushi domains (SD1/2) protein of the GABAB1a (GB1a) subunit, recombinant; experiment: FP competition
Chain of Sushi domains (SD1/2) protein of the GABAB1a (GB1a) subunit, recombinant (Q9Z0U4 29-158): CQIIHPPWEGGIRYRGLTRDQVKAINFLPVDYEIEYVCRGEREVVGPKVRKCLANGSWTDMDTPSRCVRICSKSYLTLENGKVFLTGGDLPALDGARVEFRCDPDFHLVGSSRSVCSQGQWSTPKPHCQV

[2] = target: Sushi domains (SD1/2) protein of GABAB1a (GB1a); experiment: FP competition vs TAMRA AJAP-1probe
Chain of Sushi domains (SD1/2) protein of GABAB1a (GB1a) (Q9Z0U4 29-158): as above

[3] = target: Sushi domains (SD1/2) protein of the GABAB1a (GB1a) subunit, recombinant; experiment: FP competition; remark: listed apart in the source

Ki [1] [nM]	fold increased affinity compared to Asp207Trp [1] [fold]	Ki [2] [nM]	Ki [3] [nM]	Binder
46.3	2	46	–	Ac-EDDS[Tyr(Et)]VWWGGADTD-NH2 (SMILES CCOc1ccc(C[C@H](NC(=O)[C@H](CO)NC(=O)[C@H](CC(=O)O)NC(=O)[C@H](CC(=O)O)NC(=O)[C@H](CCC(=O)O)NC(C)=O)C(=O)N[C@H](C(=O)N[C@@H](Cc2c[nH]c3ccccc23)C(=O)N[C@@H](Cc2c[nH]c3ccccc23)C(=O)NCC(=O)NCC(=O)N[C@@H](C)C(=O)N[C@@H](CC(=O)O)C(=O)N[C@H](C(=O)N[C@@H](CC(=O)O)C(N)=O)[C@@H](C)O)C(C)C)cc1) [EDDS(Oetyr)…]
–	2	43	–	Ac-EDDS[2Nal]VWWGGADTD-NH2 (SMILES CC(=O)N[C@@H](CCC(=O)O)C(=O)N[C@@H](CC(=O)O)C(=O)N[C@@H](CC(=O)O)C(=O)N[C@@H](CO)C(=O)N[C@@H](Cc1ccc2ccccc2c1)C(=O)N[C@H](C(=O)N[C@@H](Cc1c[nH]c2ccccc12)C(=O)N[C@@H](Cc1c[nH]c2ccccc12)C(=O)NCC(=O)NCC(=O)N[C@@H](C)C(=O)N[C@@H](CC(=O)O)C(=O)N[C@H](C(=O)N[C@@H](CC(=O)O)C(N)=O)[C@@H](C)O)C(C)C) [EDDS(2Nala)…]
100	–	102	–	Ac-EDDSDVWW[Phe(4-NH2)]GADTD-NH2 (SMILES CC(=O)N[C@@H](CCC(=O)O)C(=O)N[C@@H](CC(=O)O)C(=O)N[C@@H](CC(=O)O)C(=O)N[C@@H](CO)C(=O)N[C@@H](CC(=O)O)C(=O)N[C@H](C(=O)N[C@@H](Cc1c[nH]c2ccccc12)C(=O)N[C@@H](Cc1c[nH]c2ccccc12)C(=O)N[C@@H](Cc1ccc(N)cc1)C(=O)NCC(=O)N[C@@H](C)C(=O)N[C@@H](CC(=O)O)C(=O)N[C@H](C(=O)N[C@@H](CC(=O)O)C(N)=O)[C@@H](C)O)C(C)C) [EDDSDVWW(Aphe)GADTD]
–	–	–	18	Ac-EDDSWIWWYGADTD-NH2 [peptide 28 (Ac-…-NH2)]
–	–	–	4	Ac-EDDDWIDWGPTSDDD-NH2 [peptide 17 (Ac-…-NH2)]
–	–	–	3.8	Ac-EDDYIDWGPTSDDD-NH2 [peptide 19 (Ac-…-NH2)]
525	–	525	–	Ac-PWAIVWG[Sar]TVSRED-NH2 (SMILES CC[C@H](C)[C@H](NC(=O)[C@H](C)NC(=O)[C@H](Cc1c[nH]c2ccccc12)NC(=O)[C@@H]1CCCN1C(C)=O)C(=O)N[C@H](C(=O)N[C@@H](Cc1c[nH]c2ccccc12)C(=O)NCC(=O)N(C)CC(=O)N[C@H](C(=O)N[C@H](C(=O)N[C@@H](CO)C(=O)N[C@@H](CCCNC(=N)N)C(=O)N[C@@H](CCC(=O)O)C(=O)N[C@@H](CC(=O)O)C(N)=O)C(C)C)[C@@H](C)O)C(C)C) [PWAIVWG(N-Me-G)TVSRED]
–	–	5.3	–	Ac-EDDD[Oetyr]IDWYDSDDD-NH2 (SMILES CCOc1ccc(C[C@H](NC(=O)[C@H](CC(=O)O)NC(=O)[C@H](CC(=O)O)NC(=O)[C@H](CC(=O)O)NC(=O)[C@H](CCC(=O)O)NC(C)=O)C(=O)N[C@H](C(=O)N[C@@H](CC(=O)O)C(=O)N[C@@H](Cc2c[nH]c3ccccc23)C(=O)N[C@@H](Cc2ccc(O)cc2)C(=O)N[C@@H](CC(=O)O)C(=O)N[C@@H](CO)C(=O)N[C@@H](CC(=O)O)C(=O)N[C@@H](CC(=O)O)C(=O)N[C@@H](CC(=O)O)C(N)=O)[C@@H](C)CC)cc1) [peptide 32]
100	–	109	–	Ac-EDDSDVWW[Tyr(Me)]GADTD-NH2 (SMILES COc1ccc(C[C@H](NC(=O)[C@H](Cc2c[nH]c3ccccc23)NC(=O)[C@H](Cc2c[nH]c3ccccc23)NC(=O)[C@@H](NC(=O)[C@H](CC(=O)O)NC(=O)[C@H](CO)NC(=O)[C@H](CC(=O)O)NC(=O)[C@H](CC(=O)O)NC(=O)[C@H](CCC(=O)O)NC(C)=O)C(C)C)C(=O)NCC(=O)N[C@@H](C)C(=O)N[C@@H](CC(=O)O)C(=O)N[C@H](C(=O)N[C@@H](CC(=O)O)C(N)=O)[C@@H](C)O)cc1) [EDDSDVWW(Omtyr)GADTD]
–	–	–	1.5	EDDDAIDWYDSDDD (N-terminal acetyl; C-terminal amide; 3-(2-naphthyl)-L-alanine (2Nala) at 5) [peptide 20 (Ac-EDDD(2Nala)…-NH2)]
27.1	4	28	–	Ac-EDDS[Tyr(Bzl)]VWWGGADTD-NH2 (SMILES CC(=O)N[C@@H](CCC(=O)O)C(=O)N[C@@H](CC(=O)O)C(=O)N[C@@H](CC(=O)O)C(=O)N[C@@H](CO)C(=O)N[C@@H](Cc1ccc(OCc2ccccc2)cc1)C(=O)N[C@H](C(=O)N[C@@H](Cc1c[nH]c2ccccc12)C(=O)N[C@@H](Cc1c[nH]c2ccccc12)C(=O)NCC(=O)NCC(=O)N[C@@H](C)C(=O)N[C@@H](CC(=O)O)C(=O)N[C@H](C(=O)N[C@@H](CC(=O)O)C(N)=O)[C@@H](C)O)C(C)C) [EDDS(Obtyr)…]
100	–	88	–	Ac-EDDSDVWW[Tyr(Bzl)]GADTD-NH2 (SMILES CC(=O)N[C@@H](CCC(=O)O)C(=O)N[C@@H](CC(=O)O)C(=O)N[C@@H](CC(=O)O)C(=O)N[C@@H](CO)C(=O)N[C@@H](CC(=O)O)C(=O)N[C@H](C(=O)N[C@@H](Cc1c[nH]c2ccccc12)C(=O)N[C@@H](Cc1c[nH]c2ccccc12)C(=O)N[C@@H](Cc1ccc(OCc2ccccc2)cc1)C(=O)NCC(=O)N[C@@H](C)C(=O)N[C@@H](CC(=O)O)C(=O)N[C@H](C(=O)N[C@@H](CC(=O)O)C(N)=O)[C@@H](C)O)C(C)C) [EDDSDVWW(Obtyr)GADTD]
–	–	–	5.6	Ac-EDDSWIDWGPTGDED-NH2 [peptide 29 (Ac-…-NH2)]
–	–	–	3.2	Ac-EDDDWIDWYDSDDD-NH2 [peptide 16 (Ac-…-NH2)]
–	–	–	11	Ac-EDDSWIDWYGADTD-NH2 [peptide 30 (Ac-…-NH2)]
100	–	75	–	Ac-EDDSDVWW[2Nal]GADTD-NH2 (SMILES CC(=O)N[C@@H](CCC(=O)O)C(=O)N[C@@H](CC(=O)O)C(=O)N[C@@H](CC(=O)O)C(=O)N[C@@H](CO)C(=O)N[C@@H](CC(=O)O)C(=O)N[C@H](C(=O)N[C@@H](Cc1c[nH]c2ccccc12)C(=O)N[C@@H](Cc1c[nH]c2ccccc12)C(=O)N[C@@H](Cc1ccc2ccccc2c1)C(=O)NCC(=O)N[C@@H](C)C(=O)N[C@@H](CC(=O)O)C(=O)N[C@H](C(=O)N[C@@H](CC(=O)O)C(N)=O)[C@@H](C)O)C(C)C) [EDDSDVWW(2Nala)GADTD]
100	–	113	–	Ac-EDDSDVWW[Tyr(Et)]GADTD-NH2 (SMILES CCOc1ccc(C[C@H](NC(=O)[C@H](Cc2c[nH]c3ccccc23)NC(=O)[C@H](Cc2c[nH]c3ccccc23)NC(=O)[C@@H](NC(=O)[C@H](CC(=O)O)NC(=O)[C@H](CO)NC(=O)[C@H](CC(=O)O)NC(=O)[C@H](CC(=O)O)NC(=O)[C@H](CCC(=O)O)NC(C)=O)C(C)C)C(=O)NCC(=O)N[C@@H](C)C(=O)N[C@@H](CC(=O)O)C(=O)N[C@H](C(=O)N[C@@H](CC(=O)O)C(N)=O)[C@@H](C)O)cc1) [EDDSDVWW(Oetyr)GADTD]
–	–	–	4.6	Ac-EDDYIDWYDSDDD-NH2 [peptide 18 (Ac-…-NH2)]
–	–	–	95	Ac-ETEFIAWYGADTD-NH2 [peptide 37 (Ac-…-NH2)]
–	–	–	9.3	Ac-EDDD[Obtyr]IDWYDSDDD-NH2 (SMILES CC[C@H](C)[C@H](NC(=O)[C@H](Cc1ccc(OCc2ccccc2)cc1)NC(=O)[C@H](CC(=O)O)NC(=O)[C@H](CC(=O)O)NC(=O)[C@H](CC(=O)O)NC(=O)[C@H](CCC(=O)O)NC(C)=O)C(=O)N[C@@H](CC(=O)O)C(=O)N[C@@H](Cc1c[nH]c2ccccc12)C(=O)N[C@@H](Cc1ccc(O)cc1)C(=O)N[C@@H](CC(=O)O)C(=O)N[C@@H](CO)C(=O)N[C@@H](CC(=O)O)C(=O)N[C@@H](CC(=O)O)C(=O)N[C@@H](CC(=O)O)C(N)=O) [peptide 33 (Ac-EDDD(Obtyr)…-NH2)]
100	–	114	–	Ac-EDDSDVWW[1Nal]GADTD-NH2 (SMILES CC(=O)N[C@@H](CCC(=O)O)C(=O)N[C@@H](CC(=O)O)C(=O)N[C@@H](CC(=O)O)C(=O)N[C@@H](CO)C(=O)N[C@@H](CC(=O)O)C(=O)N[C@H](C(=O)N[C@@H](Cc1c[nH]c2ccccc12)C(=O)N[C@@H](Cc1c[nH]c2ccccc12)C(=O)N[C@@H](Cc1cccc2ccccc12)C(=O)NCC(=O)N[C@@H](C)C(=O)N[C@@H](CC(=O)O)C(=O)N[C@H](C(=O)N[C@@H](CC(=O)O)C(N)=O)[C@@H](C)O)C(C)C) [EDDSDVWW(1Nala)GADTD]
–	–	6.5	–	Ac-EDDD[Oetyr]IDWGPTSDDD-NH2 (SMILES CCOc1ccc(C[C@H](NC(=O)[C@H](CC(=O)O)NC(=O)[C@H](CC(=O)O)NC(=O)[C@H](CC(=O)O)NC(=O)[C@H](CCC(=O)O)NC(C)=O)C(=O)N[C@H](C(=O)N[C@@H](CC(=O)O)C(=O)N[C@@H](Cc2c[nH]c3ccccc23)C(=O)NCC(=O)N2CCC[C@H]2C(=O)N[C@H](C(=O)N[C@@H](CO)C(=O)N[C@@H](CC(=O)O)C(=O)N[C@@H](CC(=O)O)C(=O)N[C@@H](CC(=O)O)C(N)=O)[C@@H](C)O)[C@@H](C)CC)cc1) [peptide 34]
–	–	–	354	Ac-ETEFIAWGGADTD-NH2 [hybrid peptide Y (Ac-…-NH2)]
